Positions count from the first letter of the chain named.
Key:
[1] = molecular target: T1, recombinant His-tagged Can f2 (dog (Canis familiaris), UniProt O18874 19-180); test: ELISA, antigen coated
T1 construct: also called Can f2-His; recombinant Can f2; not shown: His tag
T1 sequence (looked up): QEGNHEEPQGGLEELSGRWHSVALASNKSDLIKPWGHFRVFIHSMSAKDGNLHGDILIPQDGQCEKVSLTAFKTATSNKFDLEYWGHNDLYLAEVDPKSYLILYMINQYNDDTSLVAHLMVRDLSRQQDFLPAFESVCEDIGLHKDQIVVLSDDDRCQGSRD
Method: (§1) 2 microgram per milliliter (μg/mL) target antigen is coated in a 96-well plate and ELISA assay is performed after incubation with candidate VHHs. The binding EC50 of each clone is calculated using Prism GraphPad. The positive control antibody is involved as an internal control.
(§2) Isolated VHH clones were further validated by performing an ELISA assay as described in Example 1. Metrics of thermostability including melting temperature (Tₘ), onset temperature (Tₒₙₛₑₜ), and temperature of aggregation (Tagg), were also tested with increasing temperature in the range of 20° C.-95° C. at the speed of 1° C./min. The individual binding curves are shown for each candidate in FIGS. 7B-7P.

[2] = Thermostability (Tm, Tonset, Tagg) by Nanotemper DSF; format: physicochemical; set-up: key to Tm2 / Tagg / Tm1 / Tm / Tm3 / Tonset / Tonset ø (mean) / Tagg ø (mean): temperatures in °C; conditions: for Tm1: first melting point; for Tm2: second melting point; for Tm3: third melting point; for Tm: single melting point
Method: as §2, with “(Tm),” for “(Tₘ),”, “(Tonset),” for “(Tₒₙₛₑₜ),”, “C./min. These measurements were performed using a Nanotemper DSF. When applicable, Tm1 refers to the first melting point observed, Tm2 refers to the second melting point observed, etc., Sequence information for the VHH clones and the binding assay results are summarized in Table 3.” for “C./min.”, “3B-3I.” for “7B-7P.”
as §2, with “(Tm),” for “(Tₘ),”, “(Tonset),” for “(Tₒₙₛₑₜ),”, “5B-5H.” for “7B-7P.”
as §2, with “(Tm),” for “(Tₘ),”, “(Tonset),” for “(Tₒₙₛₑₜ),”
The detailed thermostability graphs used to determine the Tm, Tonset, and Tagg are illustrated in FIGS. 19A-19I and raw data is summarized in Table 23. Any subsequent melting points observed (Tm1, Tm2, Tm3, etc.) are separated by commas.

[3] = molecular target: T2, recombinant His-tagged Der p1 (dust mite, UniProt P08176 99-320, limits assumed); test: ELISA, antigen coated on plate
T2 construct: Recombinant His-tagged protein made by the applicant; also called Der p1-His; Der pl; not shown: His tag
T2 sequence (looked up): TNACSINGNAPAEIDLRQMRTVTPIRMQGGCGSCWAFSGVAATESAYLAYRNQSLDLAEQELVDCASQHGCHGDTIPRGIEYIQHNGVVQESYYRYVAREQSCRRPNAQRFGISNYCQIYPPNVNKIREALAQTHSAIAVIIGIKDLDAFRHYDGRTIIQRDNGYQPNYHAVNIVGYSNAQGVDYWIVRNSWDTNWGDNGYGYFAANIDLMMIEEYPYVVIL
Method: as §1
Isolated VHH clones were further validated by performing an ELISA assay as described in Example 1. The individual binding curves are shown for each candidate in FIGS. 9A-9K.

[4] = anti-Can f2 VHH, 20° C.-95° C. at 1° C./min
[5] = anti-Can f2 VHH, in °C (unit assumed)
[6] = Average of two replicates, anti-Fel d1 VHH

B1: SDAB22118-3-G05 (VHH)
VHH: AVQLVESGGGLVQAGGSLRLSCAASGRTFNNSVMGWFRQAPGKEREFVAAISRSGAFAHYAESVEGRFTISRDNAKNTVYLQMNSLKPEDTAVYYCAAGAILLPTERRYDYWGQGTQVTVSS
notes: anti-Can f2 alpaca VHH; prokaryotic expression
- EC50 [1]: 0.149 µg/mL

B2: SDAB22118-1-D05 (VHH)
VHH: B1 VHH with A1Q, R19G, S32Y, A56S, A58T, S63A, E65Q, N77I, L103M, R108T
notes: as for B1
- EC50 [1]: 0.0762 µg/mL
- Tagg [2, 4]: 39.54
- Tm1 [2, 5]: 48.35
- Tm2 [2, 5]: 58.58
- Tm3 [2, 5]: 64.58

B3: SDAB22118-1-F04 (VHH)
VHH: QVQLVESGGGLVQPGGSLRLSCAYSGFTLDNNVIGWFRQAPGKEREFVAAISRSGAFTHYTESVQGRFTISRDNAKNTVYLQMNSLKPEDTAVYYCAAGAILLPTERRYDYWGQGTQVTVSS
notes: as for B1
- EC50 [1]: 0.0639 µg/mL
- Tagg [2, 4]: 48.08
- Tm [2, 5]: 58.63

B4: SDAB22118-1-B11 (VHH)
VHH: AVQLVESGGGLVQPGGSLRLSCAASGFTFSNYYMSWYRQAPGKEREWVAFITSTGSSTNYANSVKGRFTASRDNAKNTVYLQMNSLKPEDTAVYYCKTRLWGNDYWGKGTLVTVSS
notes: as for B1
- EC50 [1]: 0.164 µg/mL
- Tagg [2, 4]: 44.54
- Tm [2, 5]: 55.17

B5: SDAB22118-1-D08 (VHH)
VHH: EVQLVESGGGLVQPGGSLRLSCVVSGSIFSDNAMGWYRQAPGKQREMVAIISSVGTTNNVDSVNGRFTISRDNAKNTVYLQMNSLKPEDTAVYYCKDFSAPRYWGQGTQVTVSS
notes: as for B1
- EC50 [1]: 0.0486 µg/mL
- Tagg [2, 4]: 40.82
- Tm1 [2, 5]: 38.89
- Tm2 [2, 5]: 43.62
- Tm3 [2, 5]: 54.69

B6: SDAB22118-2-G01 (VHH)
VHH: AVQLVDSGGGLVQAGDSLRLSCVASGRTFSSYVMGWFRQAPGKERLIVATISKSGSLTHYADSVEGRFTISRDNAKNTVYLQMNSLEPEDTAVYYCTPVSDLTGRRLGSYWGQGTQVTVSS
notes: as for B1
- EC50 [1]: 0.0736 µg/mL
- Tagg [2, 4]: 38.93
- Tm [2, 5]: 43.71

B7: SDAB22118-3-B02 (VHH)
VHH: AVQLVDSGGGLVQPGGSLRLSCAASGRTFSYYAMGWFRQALGKEREFVAASSRTGRVTNYADSVKGRFTISRDNAKNTVYLQMNSLKPEDTAIYYCAADDRFYGGDNPAFYNSWGQGTQVTVSS
notes: as for B1
- EC50 [1]: 0.00759 µg/mL

B8: SDAB22118-3-D01 (VHH)
VHH: QVQLVESGGGLVQAGDSLRLSCAASGRSFSNYVMNWFRQAPGKEREFVAAISRSGRSTFYADSVKGRFTISRDNPKATVYLQMNSLVIEDTAVYFCAAASDITSMRSLAAITSWGQGTQVIVSS
notes: as for B1
- EC50 [1]: 0.429 µg/mL

B9: SDAB22118-3-F08 (VHH)
VHH: QVQLVESGGGLVQPGESLRLSCAASGSIFSIYRMGWYRQAPGEQREHVATVTSGGGTGYADSVKGRFTIYRDNAKNTVYLQMNSLKPEDTAVYSCYAIPKSWSRTSEYSWGQGTQVTVSS
notes: as for B1
- EC50 [1]: 0.0595 µg/mL

B10: SDAB22118-189-192-1-H03 (VHH)
VHH: EVQLVESGGGLVQARGSLRLSCAASGRTFNNYAMGWFRQAPGKEREFVAAIASNTGTTYYAGSVKGRFAISRDNAKNTVDLHMNSLKPEDTAVYYCALGPLRLGWWYDSRPYDYWGQGTQVTVSS
notes: as for B1
- EC50 [1]: 0.0575 µg/mL

B11: SDAB22118-189-192-1-C05 (VHH)
VHH: QVQLVESGGGGVQAGGSLRLSCVASQSHFGYNVMGWYRQAPGRQRELVATIISSGGTNYADSVKGRFTISRDNAKNTVHLSMDSLNVEDTAVYFCYAKGVWLGREYWGQGTQVTVSS
notes: as for B1
- EC50 [1]: 0.0325 µg/mL

B12: SDAB22118-189-192-1-C10 (VHH)
VHH: EVQLVESGGGLVQAGGSLRLSCAASGRTFSEYIMGWFRQAPGKERVFVSTISKSGAITNYADSVQGRFTISRDNAKNTVYLQMNSLKPEDSAVYYCAAGPLLSPAGRQYDYWGQGTQVTVSS
notes: as for B1
- EC50 [1]: 0.0217 µg/mL

B13: SDAB22118-189-192-1-E08 (VHH)
VHH: AVQLVESGGGLVQPGGSLRLSCVASGSSSRNYAMGWYRQAPGNEREFVAVITSRGYTHYANSVSGRFTISRDHAKDTAYLQMNSLKPEDTAVYYCNTQAGLLPFMTVYDWGTGTQVTVSS
notes: as for B1
- EC50 [1]: 0.00411 µg/mL

B14: SDAB22118-189-192-1-E09 (VHH)
VHH: EVQLVESGGGLVQPGGSLRLSCAASGTIFLINRMGWYRQAPGKQRELVATSFTSGNSTMYADSVKGRFTISRDNAKKTVYLQMNSLKPEDTAVYYCKARISRRYGNWDDYWGQGTQVTVSS
notes: as for B1
- EC50 [1]: 0.0571 µg/mL

B15: SDAB22118-189-192-1-E10 (VHH)
VHH: AVQLVDSGGGLVQTGGSLRLSCAASGTIFSINRMAWYRQAPGKQRELVASIFFSGGITHYADFVKGRFTISRDNAKNTMYLQMNSLKPEDTAVYYCKGVIAPNYRRTSNFQDYWGQGTQVTVSS
notes: as for B1
- EC50 [1]: 0.0427 µg/mL

B16: SDAB22129-55-35-46-49-1-D04 (VHH)
VHH: QLQLVESGGGLVQPGGSLRLSCVISGGTFHPYPIGWFREAPGKEREGVLCINSGGQSEISANSAHDPKYADSVKGRFTISRDNAANTVYLQMNNLEPGDTAVYYCAAPREIYVDPYCPTYAYEYWGQGTQVTVSA
- EC50 [3]: 0.0621 µg/mL

B17: SDAB22129-55-35-46-49-1-G09 (VHH)
VHH: QVKLEESGGGAVQPGGSLRLSCTASGQTFSNYIISWFRQAPGKEREFVVGISKSGGRTYYADSAKGRFTISRDNAKNTVYLQMSSLKPEDTAVYYCAADGLVLTAAAAEYDYWGQGTQVTVSS
notes: Expressed from a prokaryotic vector
- EC50 [3]: 0.154 µg/mL

B18: SDAB22129-55-35-46-49-1-A03 (VHH)
VHH: QVQLVESGGGLVQAGGSLRLSCAVSGRTVSRNVMGWFRQAPGKEREFVAGIGFSGGSTYYADSVKGRFTISRDNAKNTVYLEMNRLQPEDTAVYYCAAPSLPLLTSDLHDYDYWGQGTQVTVSS
notes: as for B17
- EC50 [3]: 0.0291 µg/mL

B19: SDAB22129-55-35-46-49-1-A04 (VHH)
VHH: QLQLVESGGGLVQPGGSLRLSCAASGRVYNSWTMAWFRQAPGKEREFVGAFSLLDSGTRYADSLKDRVAISRDDAANTQWLQLSALKPEDTAVYYCAAKSGTIRATSEGQYNYWGQGIQVTVSS
notes: as for B17
- EC50 [3]: 3.41 µg/mL

B20: DAB22110-1-1-C3 (protein)
VHH: QLQLVESGGGLVQPGGSLRLSCEASGFTFKYYTMSWYRQAPGKERELVATITNGDRTNYADSVKGRFTISRDNAKNTLYLQMNSLKPYDTAVYYCNRHLPLLQIWGQGTQVTVSS
- Tagg ø (mean) [2, 6]: 58.93
- Tonset ø (mean) [2, 6]: 58.06
- Tm ø (mean), first melting point (Tm1) ([2]; Average of two replicates, anti-Fel d1 VHH, in °C (unit assumed)): 66.50
- Tagg ([2]; Replicate 1): 59.02
- Tonset ([2]; Replicate 1): 58.17
- Tm, first melting point (Tm1) ([2]; Replicate 1, in °C (unit assumed)): 66.50
- Tagg ([2]; Replicate 2): 58.85
- Tonset ([2]; Replicate 2): 57.94
- Tm, first melting point (Tm1) ([2]; Replicate 2, in °C (unit assumed)): 66.51
